Reference: patent US20210388087A1 (Chugai, published 2021)
Numbering of substitutions follows the chain as printed.

B1: CE115HA000/GLS3000 N28P (antibody, IgG1, name in Kabat numbering, V domains shown)
VH: QVQLVESGGGVVQPGRSLRLSCAASGFTFSNAWMHWVRQAPGKGLEWVAQIKAKSNNYATYYAESVKGRFTISRDDSKNSLYLQMNSLKTEDTAVYYCRYVHYGAYYGVDAWGQGTTVTVSS
VL: DIVMTQSPLSLPVTPGEPASISCRSSQSLVHSPRNTYLHWYQQKPGQAPRLLIYKVSNRFSGVPDRFSGSGSGTDFTLKISRVEAEDVGVYYCGQGTQVPYTFGQGTKLEIK
notes: one-arm IgG1
B2: CE115HA000/GLS3000 N28V (antibody, IgG1, name in Kabat numbering, V domains shown)
VH: B1 VH
VL: B1 VL with P33V
notes: one-arm IgG1
B3: CE115HA000/GLS3000 N30H (antibody, IgG1, name in Kabat numbering, V domains shown)
VH: B1 VH
VL: B1 VL with P33N, N35H
notes: one-arm IgG1
B4: CE115HA000/GLS3000 N30V (antibody, IgG1, name in Kabat numbering, V domains shown)
VH: B1 VH
VL: B1 VL with P33N, N35V
notes: one-arm IgG1
B5: CE115HA000/GLS3000 N53H (antibody, IgG1, name in Kabat numbering, V domains shown)
VH: B1 VH
VL: B1 VL with P33N, N58H
notes: one-arm IgG1
B6: CE115HA000/GLS3000 N30A (antibody, IgG1, name in Kabat numbering, V domains shown)
VH: B1 VH
VL: B1 VL with P33N, N35A
notes: one-arm IgG1
B7: CE115HA000/GLS3000 N53I (antibody, IgG1, name in Kabat numbering, V domains shown)
VH: B1 VH
VL: B1 VL with P33N, N58I
notes: one-arm IgG1
B8: CE115HA000/GLS3000 N30G (antibody, IgG1, name in Kabat numbering, V domains shown)
VH: B1 VH
VL: B1 VL with P33N, N35G
notes: one-arm IgG1
B9: CE115HA000/GLS3000 N53P (antibody, IgG1, name in Kabat numbering, V domains shown)
VH: B1 VH
VL: B1 VL with P33N, N58P
notes: one-arm IgG1
B10: CE115HA000/GLS3000 N53V (antibody, IgG1, name in Kabat numbering, V domains shown)
VH: B1 VH
VL: B1 VL with P33N, N58V
notes: one-arm IgG1
B11: CE115HA000/GLS3000 N53M (antibody, IgG1, name in Kabat numbering, V domains shown)
VH: B1 VH
VL: B1 VL with P33N, N58M
notes: one-arm IgG1
B12: CE115HA000/GLS3000 N30I (antibody, IgG1, name in Kabat numbering, V domains shown)
VH: B1 VH
VL: B1 VL with P33N, N35I
notes: one-arm IgG1
B13: CE115HA000/GLS3000 N53A (antibody, IgG1, name in Kabat numbering, V domains shown)
VH: B1 VH
VL: B1 VL with P33N, N58A
notes: one-arm IgG1
B14: CE115HA000/GLS3000 N53K (antibody, IgG1, name in Kabat numbering, V domains shown)
VH: B1 VH
VL: B1 VL with P33N, N58K
notes: one-arm IgG1
B15: CE115HA000/GLS3000 N53S (antibody, IgG1, name in Kabat numbering, V domains shown)
VH: B1 VH
VL: B1 VL with P33N, N58S
notes: one-arm IgG1
B16: CE115HA000/GLS3000 N30T (antibody, IgG1, name in Kabat numbering, V domains shown)
VH: B1 VH
VL: B1 VL with P33N, N35T
notes: one-arm IgG1
B17: CE115HA000/GLS3000 N30R (antibody, IgG1, name in Kabat numbering, V domains shown)
VH: B1 VH
VL: B1 VL with P33N, N35R
notes: one-arm IgG1
B18: CE115HA000/GLS3000 N53L (antibody, IgG1, name in Kabat numbering, V domains shown)
VH: B1 VH
VL: B1 VL with P33N, N58L
notes: one-arm IgG1
B19: CE115HA000/GLS3000 N28W (antibody, IgG1, name in Kabat numbering, V domains shown)
VH: B1 VH
VL: B1 VL with P33W
notes: one-arm IgG1
B20: CE115HA000/GLS3000 N53F (antibody, IgG1, name in Kabat numbering, V domains shown)
VH: B1 VH
VL: B1 VL with P33N, N58F
notes: one-arm IgG1
B21: CE115HA000/GLS3000 N30W (antibody, IgG1, name in Kabat numbering, V domains shown)
VH: B1 VH
VL: B1 VL with P33N, N35W
notes: one-arm IgG1
B22: CE115HA000/GLS3000 N53W (antibody, IgG1, name in Kabat numbering, V domains shown)
VH: B1 VH
VL: B1 VL with P33N, N58W
notes: one-arm IgG1
B23: CE115HA000/GLS3000 P95A (antibody, IgG1, name in Kabat numbering, V domains shown)
VH: B1 VH
VL: B1 VL with P33N, P100A
notes: one-arm IgG1
B24: CE115HA000/GLS3000 N28S (antibody, IgG1, name in Kabat numbering, V domains shown)
VH: B1 VH
VL: B1 VL with P33S
notes: one-arm IgG1
B25: CE115HA000/GLS3000 P95D (antibody, IgG1, name in Kabat numbering, V domains shown)
VH: B1 VH
VL: B1 VL with P33N, P100D
notes: one-arm IgG1
B26: CE115HA000/GLS3000 N53Q (antibody, IgG1, name in Kabat numbering, V domains shown)
VH: B1 VH
VL: B1 VL with P33N, N58Q
notes: one-arm IgG1
B27: CE115HA000/GLS3000 N28Y (antibody, IgG1, name in Kabat numbering, V domains shown)
VH: B1 VH
VL: B1 VL with P33Y
notes: one-arm IgG1
B28: CE115HA000/GLS3000 N53Y (antibody, IgG1, name in Kabat numbering, V domains shown)
VH: B1 VH
VL: B1 VL with P33N, N58Y
notes: one-arm IgG1
B29: CE115HA000/GLS3000 N53T (antibody, IgG1, name in Kabat numbering, V domains shown)
VH: B1 VH
VL: B1 VL with P33N, N58T
notes: one-arm IgG1
B30: CE115HA000/GLS3000 N30P (antibody, IgG1, name in Kabat numbering, V domains shown)
VH: B1 VH
VL: B1 VL with P33N, N35P
notes: one-arm IgG1
B31: CE115HA000/GLS3000 N30L (antibody, IgG1, name in Kabat numbering, V domains shown)
VH: B1 VH
VL: B1 VL with P33N, N35L
notes: one-arm IgG1
B32: CE115HA000/GLS3000 N53G (antibody, IgG1, name in Kabat numbering, V domains shown)
VH: B1 VH
VL: B1 VL with P33N, N58G
notes: one-arm IgG1
B33: CE115HA000/GLS3000 N30K (antibody, IgG1, name in Kabat numbering, V domains shown)
VH: B1 VH
VL: B1 VL with P33N, N35K
notes: one-arm IgG1
B34: CE115HA000/GLS3000 N30S (antibody, IgG1, name in Kabat numbering, V domains shown)
VH: B1 VH
VL: B1 VL with P33N, N35S
notes: one-arm IgG1
B35: CE115HA000/GLS3000 N28T (antibody, IgG1, name in Kabat numbering, V domains shown)
VH: B1 VH
VL: B1 VL with P33T
notes: one-arm IgG1
B36: CE115HA000/GLS3000 N30D (antibody, IgG1, name in Kabat numbering, V domains shown)
VH: B1 VH
VL: B1 VL with P33N, N35D
notes: one-arm IgG1
B37: CE115HA000/GLS3000 N30M (antibody, IgG1, name in Kabat numbering, V domains shown)
VH: B1 VH
VL: B1 VL with P33N, N35M
notes: one-arm IgG1
B38: CE115HA000/GLS3000 N53E (antibody, IgG1, name in Kabat numbering, V domains shown)
VH: B1 VH
VL: B1 VL with P33N, N58E
notes: one-arm IgG1
B39: CE115HA000/GLS3000 N30Y (antibody, IgG1, name in Kabat numbering, V domains shown)
VH: B1 VH
VL: B1 VL with P33N, N35Y
notes: one-arm IgG1
B40: CE115HA000/GLS3000 N28Q (antibody, IgG1, name in Kabat numbering, V domains shown)
VH: B1 VH
VL: B1 VL with P33Q
notes: one-arm IgG1
B41: CE115HA000/GLS3000 N30Q (antibody, IgG1, name in Kabat numbering, V domains shown)
VH: B1 VH
VL: B1 VL with P33N, N35Q
notes: one-arm IgG1
B42: CE115HA000/GLS3000 N30E (antibody, IgG1, name in Kabat numbering, V domains shown)
VH: B1 VH
VL: B1 VL with P33N, N35E
notes: one-arm IgG1
B43: CE115HA000/GLS3000 N53D (antibody, IgG1, name in Kabat numbering, V domains shown)
VH: B1 VH
VL: B1 VL with P33N, N58D
notes: one-arm IgG1
B44: CE115HA000/GLS3000 N53R (antibody, IgG1, name in Kabat numbering, V domains shown)
VH: B1 VH
VL: B1 VL with P33N, N58R
notes: one-arm IgG1

The binders below were run against T1, CD3 epsilon homodimer protein (UniProt P07766 23-126) (assay: SPR, antibody over immobilised CD3e homodimer;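 further: SPR at 25 °C with CD3 epsilon homodimer amine-coupled to a CM4 sensor chip and antibody flowed over as analyte in HBS-EP+ running buffer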).
T1 construct: also called CD3 (CD3 epsilon)
T1 sequence (P07766 23-126): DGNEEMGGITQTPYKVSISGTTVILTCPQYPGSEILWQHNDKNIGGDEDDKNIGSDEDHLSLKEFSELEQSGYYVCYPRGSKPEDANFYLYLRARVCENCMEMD
B1 was tested, and the “KD ratio to GLS3000” value was 4.18. B2 was tested, and the “KD ratio to GLS3000” value was 3.73. In the case of B3, the “KD ratio to GLS3000” value is reported as 1.08. In the case of B4, the “KD ratio to GLS3000” value is reported as 2.62. For B5, the “KD ratio to GLS3000” value was 1.31. With B6 the “KD ratio to GLS3000” value was 1.16. For B7, the “KD ratio to GLS3000” value was 2.69. With B8 the “KD ratio to GLS3000” value was 2.1. In the case of B9, the “KD ratio to GLS3000” value is reported as 0.98. With B10 the “KD ratio to GLS3000” value was 2.14. B11 was tested, and the “KD ratio to GLS3000” value was 1.21. With B12 the “KD ratio to GLS3000” value was 1.24. With B13 the “KD ratio to GLS3000” value was 0.82. In the case of B14, the “KD ratio to GLS3000” value is reported as 1.05. B15 was tested, and the “KD ratio to GLS3000” value was 0.88. For B16, the “KD ratio to GLS3000” value was 12.7. In the case of B17, the “KD ratio to GLS3000” value is reported as 1.73. B18 was tested, and the “KD ratio to GLS3000” value was 1.62. With B19 the “KD ratio to GLS3000” value was 3.17. For B20, the “KD ratio to GLS3000” value was 0.96. With B21 the “KD ratio to GLS3000” value was 0.97. In the case of B22, the “KD ratio to GLS3000” value is reported as 1.01. In the case of B23, the “KD ratio to GLS3000” value is reported as 0.87. B24 was tested, and the “KD ratio to GLS3000” value was 4.3. For B25, the “KD ratio to GLS3000” value was 2.37. With B26 the “KD ratio to GLS3000” value was 1.28. With B27 the “KD ratio to GLS3000” value was 3.89. In the case of B28, the “KD ratio to GLS3000” value is reported as 0.99. With B29 the “KD ratio to GLS3000” value was 2.68. In the case of B30, the “KD ratio to GLS3000” value is reported as 12.1. For B31, the “KD ratio to GLS3000” value was 1.19. In the case of B32, the “KD ratio to GLS3000” value is reported as 1.33. With B33 the “KD ratio to GLS3000” value was 1.35. For B34, the “KD ratio to GLS3000” value was 10.6. For B35, the “KD ratio to GLS3000” value was 2.67. B36 was tested, and the “KD ratio to GLS3000” value was 3.82. For B37, the “KD ratio to GLS3000” value was 1.2. B38 was tested, and the “KD ratio to GLS3000” value was 2.47. With B39 the “KD ratio to GLS3000” value was 1.03. With B40 the “KD ratio to GLS3000” value was 3.48. B41 was tested, and the “KD ratio to GLS3000” value was 1. B42 was tested, and the “KD ratio to GLS3000” value was 2.83. In the case of B43, the “KD ratio to GLS3000” value is reported as 2.8. For B44, the “KD ratio to GLS3000” value was 1.56.
